# Measurements published in the supplement of paper PMC12338614.
# ± gives the uncertainty stated by the source.
# B1: library; numbered along this chain (parent)
# chain: MEVVDPQQLGMFTEGELMSVGMDTFIHRIDSTEVIYQPRRKRAKLIGKYLMGDLLGEGSYGKVKEVLDSETLCRRAVKILKKKKLRRIPNGEANVKKEIQLLRRLRHKNVIQLVDVLYNEEKQKMYMVMEYCVCGMQEMLDSVPEKRFPVCQAHGYFCQLIDGLEYLHSQGIVHKDIKPGNLLLTTGGTLKISDLGVAEALHPFAADDTCRTSQGSPAFQPPEIANGLDTFSGFKVDIWSAGVTLYNITTGLYPFEGDNIYKLFENIGKGSYAIPGDCGPPLSDLLKGMLEYEPAKRFSIRQIRQHSWFRKKHPPAEAPVPIPPSPDTKDRWRSMTVVPYLEDLHGADEDEDLFDIEDDIIYTQDFTVPGQVPEEEASHNGQRRGLPKAVCMNGTEAAQLSTKSRAEGRAPNPARKACSASSKIRRLSACKQQ
# Variants of: B1
# Assay: STK11 functional score (HeLa growth suppression), rescaled enrichment; synonymous median = 1, nonsense median = 0 (normalised score)
# Settings: with HeLa; variant type: missense
# Procedure, shortened: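 Functional scores are post/pre-selection log ratios corrected to wild type, rescaled to synonymous and nonsense medians, merged over codons and replicate transfections, and given bootstrapped error. They come from POPCode libraries of codon-optimised STK11 integrated by Bxb1 at an AAVS1 landing pad in HeLa, three regions each transfected three times, with BFP-negative, mCherry-positive integrants sorted by FACS and tiled gDNA amplicons sequenced on NextSeq.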
row,Variant,STK11 functional score
1,V66Q,1.08 ± 0.41
2,Y118I,1.32 ± 0.12
3,Y118E,-0.175 ± 0.13
4,A225L,1.52 ± 0.2
5,K388S,1.19 ± 0.28
6,K388H,1.12 ± 0.26
7,R333I,1.49 ± 0.23
8,R333A,1.28 ± 0.17
9,E92N,1.39 ± 0.11
10,L400Q,1.27 ± 0.42
11,F231S,0.515 ± 0.38
12,L101I,1.06 ± 0.38
13,L101M,1.62 ± 0.22
14,K83V,1.05 ± 0.48
15,K83A,1.58 ± 0.36
16,R87Y,1.6 ± 0.29
17,E33D,1.09 ± 0.39
18,T328D,1.5 ± 0.26
19,G270Q,1.16 ± 0.38
20,G270I,0.821 ± 0.36
21,S334Y,1.55 ± 0.17
22,R384F,1.55 ± 0.1
23,R384H,1.47 ± 0.13
24,A406W,1.46 ± 0.11

row,Variant,STK11 functional score
1,A406Q,1.56 ± 0.33
2,H168D,0.0708 ± 0.12
3,D343H,0.726 ± 0.38
4,D343R,1.11 ± 0.2
5,D343E,1.45 ± 0.56
6,G268R,1.44 ± 0.2
7,Y246F,0.678 ± 0.097
8,R383H,1.57 ± 0.31
9,R383N,1.5 ± 0.16
10,F157L,0.19 ± 0.45
11,H154G,0.183 ± 0.15
12,N226P,0.609 ± 0.13
13,N226G,1.24 ± 0.17
14,N226C,1.29 ± 0.27
15,A397C,1.04 ± 0.15
16,K269T,1.47 ± 0.2
17,V173I,1.52 ± 0.25
18,V173H,0.45 ± 0.086
19,R301L,1.6 ± 0.16
20,I300A,1.51 ± 0.15
21,F148H,-0.00697 ± 0.084
22,S283L,0.985 ± 0.11
23,S404Y,0.966 ± 0.14
24,S404W,1.43 ± 0.42

row,Variant,STK11 functional score
1,S69R,1.1 ± 0.44
2,S69M,0.689 ± 0.1
3,S69K,1.31 ± 0.084
4,A318L,1.58 ± 0.18
5,A318M,0.577 ± 0.31
6,A318Y,1.63 ± 0.31
7,E199S,1.21 ± 0.18
8,H174P,0.0698 ± 0.089
9,H174K,0.153 ± 0.09
10,H174Y,1.11 ± 0.27
11,K62D,1.61 ± 0.2
12,K62G,1.23 ± 0.67
13,V77G,0.0665 ± 0.079
14,V77D,0.0184 ± 0.081
15,V77W,0.824 ± 0.077
16,V77S,0.46 ± 0.12
17,G215Q,0.0889 ± 0.12
18,I161L,0.912 ± 0.23
19,I161C,1.03 ± 0.48
20,H202P,0.806 ± 0.12
21,P323I,1.52 ± 0.14
22,G276S,1.42 ± 0.27
23,G276A,1.41 ± 0.14
24,R104G,0.389 ± 0.56

row,Variant,STK11 functional score
1,R104Y,0.684 ± 0.14
2,E145P,1.36 ± 0.4
3,E145H,1.31 ± 0.2
4,E145S,1.45 ± 0.096
5,E145F,0.968 ± 0.087
6,E57Q,1.06 ± 0.23
7,L183E,0.3 ± 0.082
8,Q37I,1.65 ± 0.17
9,Q37F,0.309 ± 0.29
10,V95Y,1.55 ± 0.17
11,V95F,0.945 ± 0.26
12,L353V,1.42 ± 0.31
13,R425M,1.51 ± 0.29
14,R425A,1.59 ± 0.21
15,M22A,1.21 ± 0.85
16,T244Y,0.127 ± 0.082
17,P179I,0.823 ± 0.39
18,P179G,0.216 ± 0.078
19,P179W,0.088 ± 0.11
20,I224V,0.835 ± 0.24
21,I224M,1.11 ± 0.48
22,K403L,1.25 ± 0.46
23,K403F,1.2 ± 0.23
24,K403R,1.03 ± 0.69

row,Variant,STK11 functional score
1,K403Q,1.61 ± 0.37
2,F219K,-0.214 ± 0.31
3,Y362C,1.33 ± 0.15
4,Y362H,1.44 ± 0.13
5,A198S,0.503 ± 0.23
6,A198F,0.731 ± 0.25
7,Q159L,0.623 ± 0.11
8,Q220D,0.747 ± 0.32
9,E349I,1.05 ± 0.55
10,K146A,1.29 ± 0.39
11,K146V,0.152 ± 0.098
12,K146L,1.13 ± 0.13
13,I356R,1.19 ± 0.38
14,S421V,1.38 ± 0.18
15,S421I,1.52 ± 0.13
16,S421L,1.62 ± 0.27
17,N412V,1.33 ± 0.2
18,N412I,1.21 ± 0.43
19,Y131A,0.676 ± 0.19
20,L286V,1.14 ± 0.18
21,I303Y,-0.337 ± 0.56
22,K178M,0.202 ± 0.1
23,K178C,0.883 ± 0.25
24,I248F,0.497 ± 0.092

row,Variant,STK11 functional score
1,I248D,0.0228 ± 0.096
2,I248R,-0.248 ± 0.13
3,Y166D,-0.0245 ± 0.5
4,P221F,-0.0165 ± 0.09
5,I360K,1.31 ± 0.4
6,I360F,0.809 ± 0.12
7,D277C,1.32 ± 0.18
8,E293P,0.842 ± 0.41
9,D327H,1.21 ± 0.56
10,D365E,0.893 ± 0.49
11,D365G,1.55 ± 0.15
12,A398W,0.886 ± 0.088
13,M139A,1.39 ± 0.58
14,M139I,1.01 ± 0.15
15,M139V,0.965 ± 0.098
16,A206N,1.66 ± 0.2
17,M18T,1.62 ± 0.27
18,P319L,1.3 ± 0.17
19,N181A,0.0629 ± 0.078
20,P373D,1.58 ± 0.32
21,S142E,1.55 ± 0.18
22,S142L,1.16 ± 0.2
23,S142W,0.385 ± 0.093
24,S59T,1.32 ± 0.64

row,Variant,STK11 functional score
1,S59N,1.45 ± 0.2
2,T212G,1.3 ± 0.42
3,T212Q,1.65 ± 0.19
4,T212S,0.909 ± 0.12
5,C132K,1.25 ± 0.49
6,E376G,1.18 ± 0.25
7,E376C,1.46 ± 0.15
8,Y156F,1.27 ± 0.084
9,Y156L,1.34 ± 0.24
10,Y156S,0.762 ± 0.14
11,R415E,1.48 ± 0.33
12,N119L,1.17 ± 0.27
13,G233T,1.7 ± 0.4
14,G171S,1.41 ± 0.46
15,E165W,0.516 ± 0.11
16,M335T,1.46 ± 0.19
17,D30G,1.52 ± 0.3
18,D30C,1.44 ± 0.51
19,K44W,1.3 ± 0.074
20,P294Q,1.39 ± 0.23
21,N380M,1.55 ± 0.12
22,N380W,1.04 ± 0.73
23,R297L,-0.121 ± 0.1
